Consider 167 variants from the RNAGym collection of RNA variant scans (doi:10.7554/elife.80360).

The labels stand for the following.
B1: HDV Ribozyme (parent)
chain: GGCCGGCAUGGUCCCAGCCUCCUCGCUGGCGCCGGCUGGGCAACAUUCCGAGGGGACCGUCCCCUCGGUAAUGGCGAAUGGGACCCA

This data set covers variants of B1. Description: self-cleavage, relative activity (ratio to wild type); higher = more cleavage; co-transcriptional.
Consider C22U G25U, for which the self-cleavage amounted to 0.0287.

On to C48A G67C, for which the self-cleavage was 0.856. To U46A C86U belongs 0.594; to A42U A71U, 0.369; to C49G G50C, 0.587. To G5C A16G belongs 0.145; to G28A A71G, 0.0831; to G29U C85A, 0.0941. To G11U C64G belongs 0.465. C33U G35A: the self-cleavage was 0.205.

Consider A56U C84G, for which the self-cleavage was determined as 0.697. To A56U G80C belongs 0.22; to A56U G80U, 0.237; to G6A A51U, 0.778. With C36A G82U the figure was 0.0839. For the variant C61A A70U, the self-cleavage stood at 1.17. To G39C A70C belongs 0.175; to C64U G68U, 0.607; to G39A U65G, 0.264.

Consider G35A C48U, for which the self-cleavage turned out to be 0.499. Take G25A C41U: the self-cleavage came out at 0.155.

For C33A G68A, the self-cleavage is 0.157. To C86U A87U belongs 0.835; to A56C U60C, 0.98; to C13A A77G, 0.

Regarding G6A C44G, the self-cleavage was determined as 0.111. As for G6A A78G, the self-cleavage came out at 0.554. For U27A C61G, the self-cleavage turned out to be 0.504. For C18G G28U, the self-cleavage was determined as 0.0405.

For C41U G73A, the self-cleavage worked out at 0.929. To U20C A51U belongs 0.185; to U23A A77C, 0.332; to G31A U60G, 0.642. With U20A A77U, the self-cleavage was 0. For the variant C26U G73A, the self-cleavage is 0.747. To A45U C48G belongs 0.739; to G34C, 0.195. With C14A G53U the figure was 0.848; with A78C G80A, 0.174; with A51U G76A, 0.961. In the case of C36G G67C, the self-cleavage was 0.148. With U9C C66A the figure was 1.04; with G10A G67U, 0.767. As to C48A A51U, the self-cleavage amounted to 1.1. With U23C G28A the figure was 0.0396. As for G52C U72C, the self-cleavage was 0.332. With C13U G68A the figure was 0.502; with A43U G52U, 0.339. For the variant A42C A83C, the self-cleavage stood at 0.101. G17C C62U: the self-cleavage was 0.405.

With C13G U46G, the self-cleavage is 0.0554. In the case of G28A A43G, the self-cleavage was determined as 0.0739. As to G5C G81C, the self-cleavage was found to be 0. Turning to A16U G39A, the self-cleavage is 0.32.

Regarding G11A C48G, the self-cleavage was 0.288. With G67U G81A the figure was 0.254. To C22U A56G belongs 0.895; to C19G A83C, 0; to C61G G68U, 0.964. To A56G A70C belongs 0.935. On to G17U G29A, for which the self-cleavage stood at 0.0314.

In the case of C41G G80U, the self-cleavage was 0.124. To C49A C61A belongs 0.759; to A45U G73U, 0.302. Consider U9G A70U, for which the self-cleavage was 0.739. Consider G31C C49G, for which the self-cleavage worked out at 0.253. To C36G A45U belongs 0.0791; to G39U G50C, 0.598. On to U46A C48A, for which the self-cleavage turned out to be 0.665. With C19A U69C the figure was 0.146; with C24U C85G, 0.629. With G73C A77G the figure was 0.44.

Turning to C13A G76A, the self-cleavage came out at 0.199. To C21G G34U belongs 0.0604; to C48U G73C, 0.422.

Consider C13A C30A, for which the self-cleavage was found to be 0.0594. G17C U27C: the self-cleavage is 0. Consider G6U G17C, for which the self-cleavage came to 0.0554. Take C66G U79C: the self-cleavage came to 0.521.

Take A16C C21A: the self-cleavage was found to be 0.0437. Regarding G39U A42C, the self-cleavage was 0.237. To G34U A56G belongs 0.288; to C18U C49G, 0.723; to U23A C61A, 1.03. For G67C C75A, the self-cleavage worked out at 0.0652.

Consider G67C C75U, for which the self-cleavage is 0.0545.

In the case of C30A G82C, the self-cleavage is 0.193.

Take U23A A83C: the self-cleavage came out at 0.508. With C14A C30G the figure was 0. With U23A C85U the figure was 0.98; with C3A A83C, 0.177.

Regarding U9C A87G, the self-cleavage was found to be 1.12. With U23G G74A the figure was 0.0489; with G34U G80C, 0.143; with C13U C66A, 0.54. For the variant C7A G10U, the self-cleavage is 0.0723. To C48A G52U belongs 0.974; to C22U C86G, 0.692; to U27A A78G, 0.249. On to G25C C62U, for which the self-cleavage was determined as 0.145. With G6A U69A the figure was 0.525.

Regarding G5A A16G, the self-cleavage turned out to be 0.35. Consider C48G A78U, for which the self-cleavage was found to be 0.142. Regarding C19A C58A, the self-cleavage was found to be 0.095. U27G G38C: the self-cleavage is 0.0692. As for C41A C58G, the self-cleavage amounted to 0.935. To C58A C63A belongs 1.04; to G40U G67A, 0.699; to G39C C63G, 0.0437.

G6C U47G: the self-cleavage worked out at 0.158. With C7U C36A the figure was 0.0405; with G10A C30G, 0.0777. To C32G belongs 0.103.

In the case of C14U A83C, the self-cleavage came to 0.499.

With G1U G2U, the self-cleavage is 0.366. Regarding G10C U47C, the self-cleavage is 0.332. C3A C44A: the self-cleavage stood at 0.103. With G53U U65A the figure was 0.69; with G35U C48U, 0.554. With A43U G55A the figure was 0.537; with G35C G80A, 0.212; with C24G A56G, 0.0875.

Take G10C C49G: the self-cleavage came out at 0.453. With C18G U60A the figure was 0.

For C22U U79C, the self-cleavage stood at 0.198. With C19G C41G the figure was 0.0573; with A8U C61U, 0.739; with G39C G55U, 0.305. Turning to G10A C63A, the self-cleavage is 0.76. C19G G25U: the self-cleavage amounted to 0.0923. With G34A G39U the figure was 0.287; with G59A C64A, 0.862.

For U23G C36U, the self-cleavage came to 0.386. As to C14A A42U, the self-cleavage came out at 0.201.

Turning to G29C C85G, the self-cleavage is 0.0978. With G55A G67A the figure was 0.997; with U20A C32U, 0.0811. To G31A U69G belongs 0.284; to C14A C61A, 0.878. Regarding C48A A78C, the self-cleavage came out at 0.169. For U20A C30G, the self-cleavage is 0.095.

Regarding G59U C75G, the self-cleavage is 0.123. With U65G C75G the figure was 0.323; with U20A G68C, 0.0978; with C26G C44U, 1.04. To A8G U12G belongs 0.712.

Turning to C13U G17A, the self-cleavage is 0.623.

On to U12A A16C, for which the self-cleavage is 0.499. Turning to C3U G25C, the self-cleavage was 0.113. With G10U U60C the figure was 0.767; with C32G G38A, 0.0831.

On to U60G C64U, for which the self-cleavage worked out at 0.897. To C58A C61U belongs 0.972. Consider G25C C64G, for which the self-cleavage amounted to 0.0573. For the variant A43C C57G, the self-cleavage was 0.655. Consider G31A G67A, for which the self-cleavage came to 0.44.

For the variant U23C G31U, the self-cleavage worked out at 0.151. With C13G C63G the figure was 0.133; with C7U U60G, 0.831. On to C33A G54A, for which the self-cleavage was found to be 0.253. To U47A U65G belongs 0.931. To G34C G50C belongs 0.288.

Take G10A A83C: the self-cleavage stood at 0.287. To C3U A78U belongs 0.117. In the case of G6U C13U, the self-cleavage is 0.249. As to G52A A78G, the self-cleavage amounted to 0.604.

For C3U C14G, the self-cleavage worked out at 0.739.
